Patent publication US20170129954A1 (PROTHENA BIOSCIENCES, published 2017)

Key:
recombinant laminin 511 = target: T1, recombinant laminin 511 (UniProt O15230 36-3695; P07942 22-1786; P11047 34-1609); test: flow cytometry with pan-laminin antibody on CHO cells transfected with human MCAM
T1 construct: also called laminin 10 (α5β1γ1)

laminin α-4 = laminin α-4 (UniProt Q16363 25-1823); test: FACS on mammalian cells displaying the mutant
Text: Twenty point mutants based on the structure information and shotgun mutagenesis information were designed and generated.

Chain of laminin α-4 (Q16363 25-1823): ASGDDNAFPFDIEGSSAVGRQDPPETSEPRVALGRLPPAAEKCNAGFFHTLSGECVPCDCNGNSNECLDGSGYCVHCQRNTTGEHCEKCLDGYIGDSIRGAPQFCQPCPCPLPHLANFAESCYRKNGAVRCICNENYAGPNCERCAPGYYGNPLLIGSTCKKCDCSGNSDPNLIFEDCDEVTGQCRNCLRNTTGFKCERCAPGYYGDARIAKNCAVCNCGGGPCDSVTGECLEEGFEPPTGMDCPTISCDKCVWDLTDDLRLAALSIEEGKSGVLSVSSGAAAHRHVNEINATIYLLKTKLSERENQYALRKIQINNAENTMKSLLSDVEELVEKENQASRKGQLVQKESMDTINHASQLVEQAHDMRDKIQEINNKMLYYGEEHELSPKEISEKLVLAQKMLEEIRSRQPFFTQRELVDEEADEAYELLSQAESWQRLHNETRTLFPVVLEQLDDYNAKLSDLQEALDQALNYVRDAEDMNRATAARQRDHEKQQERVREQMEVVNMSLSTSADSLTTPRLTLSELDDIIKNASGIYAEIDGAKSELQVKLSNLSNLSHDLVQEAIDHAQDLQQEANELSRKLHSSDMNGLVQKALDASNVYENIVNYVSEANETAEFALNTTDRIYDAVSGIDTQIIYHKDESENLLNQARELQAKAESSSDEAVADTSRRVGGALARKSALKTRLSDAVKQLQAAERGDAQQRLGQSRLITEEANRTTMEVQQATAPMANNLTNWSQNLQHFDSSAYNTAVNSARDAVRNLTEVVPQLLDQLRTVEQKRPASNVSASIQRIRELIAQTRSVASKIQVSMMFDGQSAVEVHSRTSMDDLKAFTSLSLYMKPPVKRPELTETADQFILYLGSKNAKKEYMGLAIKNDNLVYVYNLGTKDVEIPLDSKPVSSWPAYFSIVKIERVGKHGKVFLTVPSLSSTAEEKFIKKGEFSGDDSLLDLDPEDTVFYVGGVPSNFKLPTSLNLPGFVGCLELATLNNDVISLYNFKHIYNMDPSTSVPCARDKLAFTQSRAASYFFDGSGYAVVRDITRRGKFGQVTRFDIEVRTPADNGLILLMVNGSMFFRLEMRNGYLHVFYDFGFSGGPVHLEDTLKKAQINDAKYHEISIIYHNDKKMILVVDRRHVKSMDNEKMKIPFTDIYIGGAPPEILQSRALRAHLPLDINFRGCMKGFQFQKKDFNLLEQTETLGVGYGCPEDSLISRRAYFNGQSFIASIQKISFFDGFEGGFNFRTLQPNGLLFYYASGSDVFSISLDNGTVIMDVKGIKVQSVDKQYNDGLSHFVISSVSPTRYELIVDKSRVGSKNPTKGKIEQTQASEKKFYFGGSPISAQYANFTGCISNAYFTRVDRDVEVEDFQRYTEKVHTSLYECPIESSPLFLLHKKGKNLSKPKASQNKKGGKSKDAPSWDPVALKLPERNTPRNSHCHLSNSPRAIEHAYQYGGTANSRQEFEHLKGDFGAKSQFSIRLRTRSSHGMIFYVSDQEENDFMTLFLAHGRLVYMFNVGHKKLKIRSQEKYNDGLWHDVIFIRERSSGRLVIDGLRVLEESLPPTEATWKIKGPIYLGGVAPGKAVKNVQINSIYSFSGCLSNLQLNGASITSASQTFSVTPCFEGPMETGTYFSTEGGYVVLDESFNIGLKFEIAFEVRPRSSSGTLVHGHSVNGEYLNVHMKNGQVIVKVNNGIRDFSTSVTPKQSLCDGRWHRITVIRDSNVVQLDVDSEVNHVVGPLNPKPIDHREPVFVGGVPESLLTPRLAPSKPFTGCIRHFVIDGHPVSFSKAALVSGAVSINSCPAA

binding result (recombinant laminin 511) | binding result (laminin α-4) | Binder
no binding (tested: 10 µg/ml) |  | human MCAM, full length, expressed on transfected cells (receptor, also called CD146; MUC18) VPGEAEQPAPELVEVEVGSTALLKCGLSQSQGNLSHVDWFSVHKEKRTLIFRVRQGQGQSEPGEYEQRLSLQDRGATLALTQVTPQDERIFLCQGKRPRSQEYRIQLRVYKAPEEPNIQVNPLGIPVNSKEPEEVATCVGRNGYPIPQVIWYKNGRPLKEEKNRVHIQSSQTVESSGLYTLQSILKAQLVKEDKDAQFYCELNYRLPSGNHMKESREVTVPVFYPTEKVWLEVEPVGMLKEGDRVEIRCLADGNPPPHFSISKQNPSTREAEEETTNDNGVLVLEPARKEHSGRYECQAWNLDTMISLLSEPQELLVNYVSDVRVSPAAPERQEGSSLTLTCEAESSQDLEFQWLREETDQVLERGPVLQLHDLKREAGGGYRCVASVPSIPGLNRTQLVKLAIFGPPWMAFKERKVWVKENMVLNLSCEASGHPRPTISWNVNGTASEQDQDPQRVLSTLNVLVTPELLETGVECTASNDLGKNTSILFLELVNLTTLTPDSNTTTGLSTSTASPHTRANSTSTERKLPEPESRGVVIVAVIVCILVLAVLGAVLYFLYKKGKLPCRRSGKQEITLPPSRKTELVVEVKSDKLPEEMGLLQGSSGDKRAPGDQGEKYIDLRH
 | no binding | human MCAM Y318A single mutant displayed on mammalian cells (receptor, also called Y318A mutant) VPGEAEQPAPELVEVEVGSTALLKCGLSQSQGNLSHVDWFSVHKEKRTLIFRVRQGQGQSEPGEYEQRLSLQDRGATLALTQVTPQDERIFLCQGKRPRSQEYRIQLRVYKAPEEPNIQVNPLGIPVNSKEPEEVATCVGRNGYPIPQVIWYKNGRPLKEEKNRVHIQSSQTVESSGLYTLQSILKAQLVKEDKDAQFYCELNYRLPSGNHMKESREVTVPVFYPTEKVWLEVEPVGMLKEGDRVEIRCLADGNPPPHFSISKQNPSTREAEEETTNDNGVLVLEPARKEHSGRAECQAWNLDTMISLLSEPQELLVNYVSDVRVSPAAPERQEGSSLTLTCEAESSQDLEFQWLREETDQVLERGPVLQLHDLKREAGGGYRCVASVPSIPGLNRTQLVKLAIFGPPWMAFKERKVWVKENMVLNLSCEASGHPRPTISWNVNGTASEQDQDPQRVLSTLNVLVTPELLETGVECTASNDLGKNTSILFLELVNLTTLTPDSNTTTGLSTSTASPHTRANSTSTERKLPEPESRGVVIVAVIVCILVLAVLGAVLYFLYKKGKLPCRRSGKQEITLPPSRKTELVVEVKSDKLPEEMGLLQGSSGDKRAPGDQGEKYIDLRH
